Laboratory results: US11370846B2, “Compositions and methods to regulate Renalase in the treatment of cancer” (Yale University, priority 2014, dated 2022)

Columns and labels:
BxPC3 xenografted tumors = assay: BxPC3 pancreatic xenograft in athymic nude mice; type: in vivo, mouse
Protocol: Immunohistochemistry was performed as described previously (Guo et al., 2012 Cancer Science. 103(8):1474-80). Briefly tumor tissues were formalin-fixed, paraffin-embedded and cut into 5-μm sections on glass slides. The slides were de-paraffinized and hydrated, followed by antigen retrieval in a pressure cooker containing 10 mM sodium citrate, pH6 buffer. The sections were blocked in 3% hydrogen peroxide for 30 min and 2.5% normal horse serum in PBS/0.1% Tween20 for 1 h followed by incubation with primary antibody and isotype control IgG overnight at 4° C. […]
Xenograft tumors were established by subcutaneous injection of BxPC3 cells (2×10^6 in 100 μl of PBS, pH 7.6). […] Tumor size was measured with digital calipers and volume was calculated according to the formula (length×width)×π/2. […] These animals received no further treatments, and tumor size and volume were measured for up to 30 days.
At the end of the study, the mice were sacrificed, the tumors were excised and immediately snap-frozen in liquid nitrogen and stored at −80° C. […] Sections were examined by light microscopy and the apoptosis index was determined by counting >1000 cells in 5 randomly selected high-power fields (×200 magnification).

A375.S2 melanoma cells = assay: Cell viability, WST-1, A375.S2 melanoma cells; type: cell-based, human; conditions: A375.S2, 72 hrs
Protocol: FIG. 19A through FIG. 19D are a series of images and charts showing that inhibition of RNLS signaling is cytotoxic to melanoma cells in vitro. […] FIG. 19B comprises two charts depicting relative cell viability: Left panel: Cells were treated with indicated antibodies for 72 hrs and cell viability was determined using WST-1; m28-RNLS (also known as 1D-28-4), m37-RNLS (also known as 1D-37-10): monoclonal antibodies raised against RNLS peptide RP220; Right panel: A375.S2 cells treated with increasing doses of m28-RNLS for 72 hrs and cell viability determined with a WST-1 assay; n=6, * indicates p<0.05 and ** indicates p<0.005. FIG. 19C comprises representative photos of A375.S2, SkMe128, and SkMe15 after 72 hrs incubation with either control rabbit IgG or m28-RNLS. FIG. 19D is a chart depicting relative cell viability, comprising amino acid (AA) sequence of RNLS peptide antagonist (RP220A).
For additional studies, cell viability was determined using WST-1 reagent (Roche Diagnostics, Indianapolis, Ind., USA) according to the manufacturers' instruction. Absorbances were read using a microplate reader (Power Waves XS, BioTek Instruments, Winooski, Vt., USA).

p38 MAPK = p38 MAPK phosphorylation in Panc1 cells by western blot; type: cell-based, human; conditions: beginning at day 1 post treatment
Protocol: FIG. 26A through FIG. 26E are a series of images and charts showing that inhibition of RNLS signaling induces apoptosis and cell cycle arrest. […] FIG. 26B is a chart depicting FACS analysis of Panc1 cells in culture treated with either m28-RNLS (30 μg/ml) or 100 μM etoposide (positive control) for 4 days; n=3, * indicates p<0.05. FIG. 26C is an image showing Panc1 cells treated with polyclonal ab31291 or with goat IgG as a negative control, and cells lysates probed for p38 and Bax activation by western blot. […] FIG. 26E is a chart showing the effect of m28-RNLS on cell cycle of Panc1 cells determined by FACS analysis; green curve: no treatment, purple curve: rabbit IgG, red curve: m28-RNLS 30 μg/ml.

PDACC = PDACC growth with anti-RNLS antibodies, WST-1; type: cell-based, human; conditions: 72 hrs
Protocol: FIG. 25A through FIG. 25E are a series of charts and images showing that inhibition of RNLS signaling is cytotoxic to cancer cells in vitro and in vivo. FIG. 25A is a chart showing relative cell viability following transient transfection of Panc1 cells using a RNLS-specific siRNA, or a non-specific control siRNA, and cell viability assayed 96 h later using the WST-1 reagent; n=6, ** indicates p<0.001. FIG. 25B is a chart showing relative cell viability when cells were treated with indicated antibodies for 72 hrs and cell viability determined using WST-1; m28-RNLS and m37-RNLS: monoclonal antibodies raised against RNLS peptide RP220, ab31291: Abcam polyclonal antibody raised against a partial sequence of RP-220; n=6, * indicates p<0.005. […] FIG. 25D is a chart showing tumor volume increase after athymic nude mice received subcutaneous injection of Panc1 cells transduced with RNLS shRNA (sh-RNLS) or control (sh-Control); tumor volume measured every […] for up to 30 days, n=6 each; * indicates p<0.05. FIG. 25E is chart showing tumor volume increase after nude mice were xenografted with BxPC3; tumor volume measured prior to treatment every 3-4 days with 2 mg/kg of either rabbit IgG as a negative control or with m28-RNLS, n=10, * indicates p<0.05.

B1: 1D-28-4: rabbit anti-renalase monoclonal raised against peptide RP-220 (antigen 1D); heavy chain SEQ ID NO:9, light chain SEQ ID NO:10 (antibody)
heavy: METGLRWLLLVAVLKGVQCQSVEESGGRLVTPGTPLTLTCTVSGFSLSSFAVGWVRQAPGKGLEYIGIISSVGITRYASWAAGRFTISKTSTTVDLKITSPTTEDTATYFCARYGYSGDVNRLDLWGQGTLVTVSSGQPKAPSVFPLAPCCGDTPSSTVTLGCLVKGYLPEPVTVTWNSGTLTNGVRTFPSVRQSSGLYSLSSVVSVTSSSQPVTCNVAHPATNTKVDKTVAPSTCSKPTCPPPELLGGPSVFIFPPKPKDTLMISRTPEVTCVVVDVSQDDPEVQFTWYINNEQVRTARPPLREQQFNSTIRVVSTLPIAHQDWLRGKEFKCKVHNKALPAPIEKTISKARGQPLEPKVYTMGPPREELSSRSVSLTCMINGFYPSDISVEWEKNGKAEDNYKTTPAVLDSDGSYFLYSKLSVPTSEWQRGDVFTCSVMHEALHNHYTQKSISRSPGK
light: MDTRAPTQLLGLLLLWLPGATFAQVLTQTASPVSAAVGGTVTINCQASQSVYDNNNLAWYQQKPGQPPKQLIYGASTLASGVSSRFKGSGSGTQFTLTISGVQCDDAATYYCLGEFSCSSADCFAFGGGTEVVVKGDPVAPTVLIFPPSADLVATGTVTIVCVANKYFPDVTVTWEVDGTTQTTGIENSKTPQNSADCTYNLSSTLTLTSTQYNSHKEYTCKVTQGTTSVVQSFNRGDC
modifications: oryctolagus cuniculus
p21 positive cells (BxPC3 xenografted tumors; IHC): 178.1±11.4 positive cells/high power field
decrease in expression of Ki67 vs IgG (BxPC3 xenografted tumors; mouse, in vivo): 2.5 fold
cytotoxicity with increasing dose (A375.S2 melanoma cells): increasing levels of cytotoxicity in correlation with increasing treatment concentrations
phosphorylation of p38 MAPK (p38 MAPK): sustained phosphorylation
PDACC growth (PDACC): inhibitory effects
